Source: patent publication US20150344540A1, “NOVEL GLP-1 RECEPTOR AGONISTS WITH CHOLESTEROL EFFLUX ACTIVITY” (NOVO NORDISK A/S, priority 2012, published 2015)
Where no end group is shown, it is not given here. [ ]: non-standard residue; d: D form. Aib = CC(C)(N)C(=O)O

Molecular target: human GLP-1 receptor (human, UniProt P43220)
Experiment: cell-based or functional assay

| Binder | CRE luciferase EC50, 0% HSA [nM] | CRE luciferase EC50, 1% HSA [nM] |
| --- | --- | --- |
| HAEGTFTSDVSSYLEGEAVREFIAWLVHRVREFLEK [[Glu23,Val25,Arg26,His34,Arg35,Val36,Arg37]-GLP-1-(7-37)-peptidyl-Glu-Phe-Leu-Glu-Lys] | 0.039 | 0.014 |
| HAEGTFTSDVSSYLEGQAAKEFIAWLVEHVKEFL-NH2 [[Glu34,His35,Val36,Lys37]-GLP-1-(7-37)-peptidyl-Glu-Phe-Leu amide] | 0.103 | 0.024 |
| H[Aib]EGTFTSDVSSYLEGEAVKEFIAWLVEK[Aib]K-NH2 (N-terminus assumed; SMILES CC[C@H](C)[C@H](NC(=O)[C@H](Cc1ccccc1)NC(=O)[C@H](CCC(=O)O)NC(=O)[C@H](CCCCN)NC(=O)[C@@H](NC(=O)[C@H](C)NC(=O)[C@H](CCC(=O)O)NC(=O)CNC(=O)[C@H](CCC(=O)O)NC(=O)[C@H](CC(C)C)NC(=O)[C@H](Cc1ccc(O)cc1)NC(=O)[C@H](CO)NC(=O)[C@H](CO)NC(=O)[C@@H](NC(=O)[C@H](CC(=O)O)NC(=O)[C@H](CO)NC(=O)[C@@H](NC(=O)[C@H](Cc1ccccc1)NC(=O)[C@@H](NC(=O)CNC(=O)[C@H](CCC(=O)O)NC(=O)C(C)(C)NC(=O)[C@@H](N)Cc1c[nH]cn1)[C@@H](C)O)[C@@H](C)O)C(C)C)C(C)C)C(=O)N[C@@H](C)C(=O)N[C@@H](Cc1c[nH]c2ccccc12)C(=O)N[C@@H](CC(C)C)C(=O)N[C@H](C(=O)N[C@@H](CCC(=O)O)C(=O)N[C@@H](CCCCN)C(=O)NC(C)(C)C(=O)N[C@@H](CCCCN)C(N)=O)C(C)C) [[Aib8,Glu23,Val25,Glu34,Lys35,Aib36,Lys37]-GLP-1-(7-37)-peptide amide] | 0.015 | 0.004 |
| H[Aib]EGTFTSDVSSYLEEEAVKEFIAWLVEKVKEFL-NH2 (N-terminus assumed; SMILES CC[C@H](C)[C@H](NC(=O)[C@H](Cc1ccccc1)NC(=O)[C@H](CCC(=O)O)NC(=O)[C@H](CCCCN)NC(=O)[C@@H](NC(=O)[C@H](C)NC(=O)[C@H](CCC(=O)O)NC(=O)[C@H](CCC(=O)O)NC(=O)[C@H](CCC(=O)O)NC(=O)[C@H](CC(C)C)NC(=O)[C@H](Cc1ccc(O)cc1)NC(=O)[C@H](CO)NC(=O)[C@H](CO)NC(=O)[C@@H](NC(=O)[C@H](CC(=O)O)NC(=O)[C@H](CO)NC(=O)[C@@H](NC(=O)[C@H](Cc1ccccc1)NC(=O)[C@@H](NC(=O)CNC(=O)[C@H](CCC(=O)O)NC(=O)C(C)(C)NC(=O)[C@@H](N)Cc1c[nH]cn1)[C@@H](C)O)[C@@H](C)O)C(C)C)C(C)C)C(=O)N[C@@H](C)C(=O)N[C@@H](Cc1c[nH]c2ccccc12)C(=O)N[C@@H](CC(C)C)C(=O)N[C@H](C(=O)N[C@@H](CCC(=O)O)C(=O)N[C@@H](CCCCN)C(=O)N[C@H](C(=O)N[C@@H](CCCCN)C(=O)N[C@@H](CCC(=O)O)C(=O)N[C@@H](Cc1ccccc1)C(=O)N[C@@H](CC(C)C)C(N)=O)C(C)C)C(C)C) [[Aib8,Glu22,Glu23,Val25,Glu34,Lys35,Val36,Lys37]-GLP-1-(7-37)-peptidyl-Glu-Phe-Leu amide] | 0.116 | 0.034 |
| HAEGTYTNDVTEYLEGEAVKEFIAWLVEK[Aib]KEFL-NH2 (N-terminus assumed; SMILES CC[C@H](C)[C@H](NC(=O)[C@H](Cc1ccccc1)NC(=O)[C@H](CCC(=O)O)NC(=O)[C@H](CCCCN)NC(=O)[C@@H](NC(=O)[C@H](C)NC(=O)[C@H](CCC(=O)O)NC(=O)CNC(=O)[C@H](CCC(=O)O)NC(=O)[C@H](CC(C)C)NC(=O)[C@H](Cc1ccc(O)cc1)NC(=O)[C@H](CCC(=O)O)NC(=O)[C@@H](NC(=O)[C@@H](NC(=O)[C@H](CC(=O)O)NC(=O)[C@H](CC(N)=O)NC(=O)[C@@H](NC(=O)[C@H](Cc1ccc(O)cc1)NC(=O)[C@@H](NC(=O)CNC(=O)[C@H](CCC(=O)O)NC(=O)[C@H](C)NC(=O)[C@@H](N)Cc1c[nH]cn1)[C@@H](C)O)[C@@H](C)O)C(C)C)[C@@H](C)O)C(C)C)C(=O)N[C@@H](C)C(=O)N[C@@H](Cc1c[nH]c2ccccc12)C(=O)N[C@@H](CC(C)C)C(=O)N[C@H](C(=O)N[C@@H](CCC(=O)O)C(=O)N[C@@H](CCCCN)C(=O)NC(C)(C)C(=O)N[C@@H](CCCCN)C(=O)N[C@@H](CCC(=O)O)C(=O)N[C@@H](Cc1ccccc1)C(=O)N[C@@H](CC(C)C)C(N)=O)C(C)C) | 0.202 | 0.104 |
| HAEGTFTHDVSSYYEGEAVKEFIAWLVEK[Aib]KEFL-NH2 (N-terminus assumed; SMILES CC[C@H](C)[C@H](NC(=O)[C@H](Cc1ccccc1)NC(=O)[C@H](CCC(=O)O)NC(=O)[C@H](CCCCN)NC(=O)[C@@H](NC(=O)[C@H](C)NC(=O)[C@H](CCC(=O)O)NC(=O)CNC(=O)[C@H](CCC(=O)O)NC(=O)[C@H](Cc1ccc(O)cc1)NC(=O)[C@H](Cc1ccc(O)cc1)NC(=O)[C@H](CO)NC(=O)[C@H](CO)NC(=O)[C@@H](NC(=O)[C@H](CC(=O)O)NC(=O)[C@H](Cc1c[nH]cn1)NC(=O)[C@@H](NC(=O)[C@H](Cc1ccccc1)NC(=O)[C@@H](NC(=O)CNC(=O)[C@H](CCC(=O)O)NC(=O)[C@H](C)NC(=O)[C@@H](N)Cc1c[nH]cn1)[C@@H](C)O)[C@@H](C)O)C(C)C)C(C)C)C(=O)N[C@@H](C)C(=O)N[C@@H](Cc1c[nH]c2ccccc12)C(=O)N[C@@H](CC(C)C)C(=O)N[C@H](C(=O)N[C@@H](CCC(=O)O)C(=O)N[C@@H](CCCCN)C(=O)NC(C)(C)C(=O)N[C@@H](CCCCN)C(=O)N[C@@H](CCC(=O)O)C(=O)N[C@@H](Cc1ccccc1)C(=O)N[C@@H](CC(C)C)C(N)=O)C(C)C) [[His14,Tyr20,Glu23,Val25,Glu34,Lys35,Aib36,Lys37]-GLP-1-(7-37)-peptidyl-Glu-Phe-Leu amide] | 0.338 | 0.101 |
| HADGTLTSDISSYLEGEAVKEFIAWLVEK[Aib]KEFL-NH2 [[Asp9,Leu12,Ile16,Glu23,Val25,Glu34,Lys35,Aib36,Lys37]-GLP-1-(7-37)-peptidyl-Glu-Phe-Leu amide] | 0.222 | 0.062 |
| HAEGTFTSDVSSYLEGQAAKEFIAWLVEKVHEFL-NH2 [[Glu34,Lys35,Val36,His37]-GLP-1-(7-37)-peptidyl-Glu-Phe-Leu amide] | 0.107 | 0.03 |
| H[Aib]EGTFTSDLSKQMEGEAVRLFIEWLKNK[Aib]LEFLELL-NH2 (N-terminus assumed; SMILES CC[C@H](C)[C@H](NC(=O)[C@H](Cc1ccccc1)NC(=O)[C@H](CC(C)C)NC(=O)[C@H](CCCNC(=N)N)NC(=O)[C@@H](NC(=O)[C@H](C)NC(=O)[C@H](CCC(=O)O)NC(=O)CNC(=O)[C@H](CCC(=O)O)NC(=O)[C@H](CCSC)NC(=O)[C@H](CCC(N)=O)NC(=O)[C@H](CCCCN)NC(=O)[C@H](CO)NC(=O)[C@H](CC(C)C)NC(=O)[C@H](CC(=O)O)NC(=O)[C@H](CO)NC(=O)[C@@H](NC(=O)[C@H](Cc1ccccc1)NC(=O)[C@@H](NC(=O)CNC(=O)[C@H](CCC(=O)O)NC(=O)C(C)(C)NC(=O)[C@@H](N)Cc1c[nH]cn1)[C@@H](C)O)[C@@H](C)O)C(C)C)C(=O)N[C@@H](CCC(=O)O)C(=O)N[C@@H](Cc1c[nH]c2ccccc12)C(=O)N[C@@H](CC(C)C)C(=O)N[C@@H](CCCCN)C(=O)N[C@@H](CC(N)=O)C(=O)N[C@@H](CCCCN)C(=O)NC(C)(C)C(=O)N[C@@H](CC(C)C)C(=O)N[C@@H](CCC(=O)O)C(=O)N[C@@H](Cc1ccccc1)C(=O)N[C@@H](CC(C)C)C(=O)N[C@@H](CCC(=O)O)C(=O)N[C@@H](CC(C)C)C(=O)N[C@@H](CC(C)C)C(N)=O) [[Aib2,Gly16,Lys29,Aib30,Leu31,Glu32,Phe33,Leu34,Glu35,Leu36,Leu37]-Exendin-4-(1-37)-peptide amide] | 1.51 | 0.552 |
| H[Aib]EGTFTSDVSSYLEGDAVKDFIAWLVEK[Aib]KEFL-NH2 (N-terminus assumed; SMILES CC[C@H](C)[C@H](NC(=O)[C@H](Cc1ccccc1)NC(=O)[C@H](CC(=O)O)NC(=O)[C@H](CCCCN)NC(=O)[C@@H](NC(=O)[C@H](C)NC(=O)[C@H](CC(=O)O)NC(=O)CNC(=O)[C@H](CCC(=O)O)NC(=O)[C@H](CC(C)C)NC(=O)[C@H](Cc1ccc(O)cc1)NC(=O)[C@H](CO)NC(=O)[C@H](CO)NC(=O)[C@@H](NC(=O)[C@H](CC(=O)O)NC(=O)[C@H](CO)NC(=O)[C@@H](NC(=O)[C@H](Cc1ccccc1)NC(=O)[C@@H](NC(=O)CNC(=O)[C@H](CCC(=O)O)NC(=O)C(C)(C)NC(=O)[C@@H](N)Cc1c[nH]cn1)[C@@H](C)O)[C@@H](C)O)C(C)C)C(C)C)C(=O)N[C@@H](C)C(=O)N[C@@H](Cc1c[nH]c2ccccc12)C(=O)N[C@@H](CC(C)C)C(=O)N[C@H](C(=O)N[C@@H](CCC(=O)O)C(=O)N[C@@H](CCCCN)C(=O)NC(C)(C)C(=O)N[C@@H](CCCCN)C(=O)N[C@@H](CCC(=O)O)C(=O)N[C@@H](Cc1ccccc1)C(=O)N[C@@H](CC(C)C)C(N)=O)C(C)C) [[Aib8,Asp23,Val25,Asp27,Glu34,Lys35,Aib36,Lys37]-GLP-1-(7-37)-peptidyl-Glu-Phe-Leu amide] | 4.88 | 0.776 |
| H[Aib]EGTFTSDVSSYLEGEAVKEFIAHLVEK[Aib]KEFL-NH2 (N-terminus assumed; SMILES CC[C@H](C)[C@H](NC(=O)[C@H](Cc1ccccc1)NC(=O)[C@H](CCC(=O)O)NC(=O)[C@H](CCCCN)NC(=O)[C@@H](NC(=O)[C@H](C)NC(=O)[C@H](CCC(=O)O)NC(=O)CNC(=O)[C@H](CCC(=O)O)NC(=O)[C@H](CC(C)C)NC(=O)[C@H](Cc1ccc(O)cc1)NC(=O)[C@H](CO)NC(=O)[C@H](CO)NC(=O)[C@@H](NC(=O)[C@H](CC(=O)O)NC(=O)[C@H](CO)NC(=O)[C@@H](NC(=O)[C@H](Cc1ccccc1)NC(=O)[C@@H](NC(=O)CNC(=O)[C@H](CCC(=O)O)NC(=O)C(C)(C)NC(=O)[C@@H](N)Cc1c[nH]cn1)[C@@H](C)O)[C@@H](C)O)C(C)C)C(C)C)C(=O)N[C@@H](C)C(=O)N[C@@H](Cc1c[nH]cn1)C(=O)N[C@@H](CC(C)C)C(=O)N[C@H](C(=O)N[C@@H](CCC(=O)O)C(=O)N[C@@H](CCCCN)C(=O)NC(C)(C)C(=O)N[C@@H](CCCCN)C(=O)N[C@@H](CCC(=O)O)C(=O)N[C@@H](Cc1ccccc1)C(=O)N[C@@H](CC(C)C)C(N)=O)C(C)C) [[Aib8,Glu23,Val25,His31,Glu34,Lys35,Aib36,Lys37]-GLP-1-(7-37)-peptidyl-Glu-Phe-Leu amide] | 0.066 | 0.02 |
